The source of these data is US20210277068A1 (SHANXI KANGBAO BIOLOGICAL PRODUCT, published 2021).

T1: N39 (HIV-1, N-terminal acetyl (Ac-); C-terminal amide (-NH2))
T1 peptide: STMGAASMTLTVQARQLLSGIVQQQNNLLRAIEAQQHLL

B1: LP-89 (peptide)
peptide: Ac-KIEELLKKAEEQQKKNEEELKKLEK(Stearoyl)-NH2
SMILES: CCCCCCCCCCCCCCCCCC(=O)NCCCC[C@H](NC(=O)[C@H](CCC(=O)O)NC(=O)[C@H](CC(C)C)NC(=O)[C@H](CCCCN)NC(=O)[C@H](CCCCN)NC(=O)[C@H](CC(C)C)NC(=O)[C@H](CCC(=O)O)NC(=O)[C@H](CCC(=O)O)NC(=O)[C@H](CCC(=O)O)NC(=O)[C@H](CC(N)=O)NC(=O)[C@H](CCCCN)NC(=O)[C@H](CCCCN)NC(=O)[C@H](CCC(N)=O)NC(=O)[C@H](CCC(N)=O)NC(=O)[C@H](CCC(=O)O)NC(=O)[C@H](CCC(=O)O)NC(=O)[C@H](C)NC(=O)[C@H](CCCCN)NC(=O)[C@H](CCCCN)NC(=O)[C@H](CC(C)C)NC(=O)[C@H](CC(C)C)NC(=O)[C@H](CCC(=O)O)NC(=O)[C@H](CCC(=O)O)NC(=O)[C@@H](NC(=O)[C@H](CCCCN)NC(C)=O)[C@@H](C)CC)C(N)=O
B2: LP-82 (peptide)
peptide: Ac-WEQKIEELLKKAEEQQKKNEEELKKLEK(Octanoyl)-NH2
B3: LP-55 (peptide)
peptide: Ac-WEQKIEELLKKAEEQQKKNEEELKK(Palmitoyl)-NH2
SMILES: CCCCCCCCCCCCCCCC(=O)NCCCC[C@H](NC(=O)[C@H](CCCCN)NC(=O)[C@H](CC(C)C)NC(=O)[C@H](CCC(=O)O)NC(=O)[C@H](CCC(=O)O)NC(=O)[C@H](CCC(=O)O)NC(=O)[C@H](CC(N)=O)NC(=O)[C@H](CCCCN)NC(=O)[C@H](CCCCN)NC(=O)[C@H](CCC(N)=O)NC(=O)[C@H](CCC(N)=O)NC(=O)[C@H](CCC(=O)O)NC(=O)[C@H](CCC(=O)O)NC(=O)[C@H](C)NC(=O)[C@H](CCCCN)NC(=O)[C@H](CCCCN)NC(=O)[C@H](CC(C)C)NC(=O)[C@H](CC(C)C)NC(=O)[C@H](CCC(=O)O)NC(=O)[C@H](CCC(=O)O)NC(=O)[C@@H](NC(=O)[C@H](CCCCN)NC(=O)[C@H](CCC(N)=O)NC(=O)[C@H](CCC(=O)O)NC(=O)[C@H](Cc1c[nH]c2ccccc12)NC(C)=O)[C@@H](C)CC)C(N)=O
notes: LP-52 without the C-terminal LEK
B4: LP-90 (peptide)
peptide: Ac-IEELLKKAEEQQKKNEEELKKLEK(Stearoyl)-NH2
B5: LP-64 (peptide)
peptide: Ac-KIEELLKKAEEQQKKNEEELKKLEK(Palmitoyl)-NH2
SMILES: CCCCCCCCCCCCCCCC(=O)NCCCC[C@H](NC(=O)[C@H](CCC(=O)O)NC(=O)[C@H](CC(C)C)NC(=O)[C@H](CCCCN)NC(=O)[C@H](CCCCN)NC(=O)[C@H](CC(C)C)NC(=O)[C@H](CCC(=O)O)NC(=O)[C@H](CCC(=O)O)NC(=O)[C@H](CCC(=O)O)NC(=O)[C@H](CC(N)=O)NC(=O)[C@H](CCCCN)NC(=O)[C@H](CCCCN)NC(=O)[C@H](CCC(N)=O)NC(=O)[C@H](CCC(N)=O)NC(=O)[C@H](CCC(=O)O)NC(=O)[C@H](CCC(=O)O)NC(=O)[C@H](C)NC(=O)[C@H](CCCCN)NC(=O)[C@H](CCCCN)NC(=O)[C@H](CC(C)C)NC(=O)[C@H](CC(C)C)NC(=O)[C@H](CCC(=O)O)NC(=O)[C@H](CCC(=O)O)NC(=O)[C@@H](NC(=O)[C@H](CCCCN)NC(C)=O)[C@@H](C)CC)C(N)=O
notes: N-terminally truncated, based on LP-52
B6: LP-62 (peptide)
peptide: Ac-EQKIEELLKKAEEQQKKNEEELKKLEK(Palmitoyl)-NH2
SMILES: CCCCCCCCCCCCCCCC(=O)NCCCC[C@H](NC(=O)[C@H](CCC(=O)O)NC(=O)[C@H](CC(C)C)NC(=O)[C@H](CCCCN)NC(=O)[C@H](CCCCN)NC(=O)[C@H](CC(C)C)NC(=O)[C@H](CCC(=O)O)NC(=O)[C@H](CCC(=O)O)NC(=O)[C@H](CCC(=O)O)NC(=O)[C@H](CC(N)=O)NC(=O)[C@H](CCCCN)NC(=O)[C@H](CCCCN)NC(=O)[C@H](CCC(N)=O)NC(=O)[C@H](CCC(N)=O)NC(=O)[C@H](CCC(=O)O)NC(=O)[C@H](CCC(=O)O)NC(=O)[C@H](C)NC(=O)[C@H](CCCCN)NC(=O)[C@H](CCCCN)NC(=O)[C@H](CC(C)C)NC(=O)[C@H](CC(C)C)NC(=O)[C@H](CCC(=O)O)NC(=O)[C@H](CCC(=O)O)NC(=O)[C@@H](NC(=O)[C@H](CCCCN)NC(=O)[C@H](CCC(N)=O)NC(=O)[C@H](CCC(=O)O)NC(C)=O)[C@@H](C)CC)C(N)=O
notes: as for B5
B7: LP-52 (peptide)
peptide: Ac-WEQKIEELLKKAEEQQKKNEEELKKLEK(Palmitoyl)-NH2
B8: LP-51 (peptide)
peptide: Ac-LEANIEELLKKAEEQQKKNEEELKKLEK(Palmitoyl)-NH2
SMILES: CCCCCCCCCCCCCCCC(=O)NCCCC[C@H](NC(=O)[C@H](CCC(=O)O)NC(=O)[C@H](CC(C)C)NC(=O)[C@H](CCCCN)NC(=O)[C@H](CCCCN)NC(=O)[C@H](CC(C)C)NC(=O)[C@H](CCC(=O)O)NC(=O)[C@H](CCC(=O)O)NC(=O)[C@H](CCC(=O)O)NC(=O)[C@H](CC(N)=O)NC(=O)[C@H](CCCCN)NC(=O)[C@H](CCCCN)NC(=O)[C@H](CCC(N)=O)NC(=O)[C@H](CCC(N)=O)NC(=O)[C@H](CCC(=O)O)NC(=O)[C@H](CCC(=O)O)NC(=O)[C@H](C)NC(=O)[C@H](CCCCN)NC(=O)[C@H](CCCCN)NC(=O)[C@H](CC(C)C)NC(=O)[C@H](CC(C)C)NC(=O)[C@H](CCC(=O)O)NC(=O)[C@H](CCC(=O)O)NC(=O)[C@@H](NC(=O)[C@H](CC(N)=O)NC(=O)[C@H](C)NC(=O)[C@H](CCC(=O)O)NC(=O)[C@H](CC(C)C)NC(C)=O)[C@@H](C)CC)C(N)=O
B9: LP-92 (peptide)
peptide: Ac-IEELLKKAEEQQKKNEEELKK(Stearoyl)-NH2
SMILES: CCCCCCCCCCCCCCCCCC(=O)NCCCC[C@H](NC(=O)[C@H](CCCCN)NC(=O)[C@H](CC(C)C)NC(=O)[C@H](CCC(=O)O)NC(=O)[C@H](CCC(=O)O)NC(=O)[C@H](CCC(=O)O)NC(=O)[C@H](CC(N)=O)NC(=O)[C@H](CCCCN)NC(=O)[C@H](CCCCN)NC(=O)[C@H](CCC(N)=O)NC(=O)[C@H](CCC(N)=O)NC(=O)[C@H](CCC(=O)O)NC(=O)[C@H](CCC(=O)O)NC(=O)[C@H](C)NC(=O)[C@H](CCCCN)NC(=O)[C@H](CCCCN)NC(=O)[C@H](CC(C)C)NC(=O)[C@H](CC(C)C)NC(=O)[C@H](CCC(=O)O)NC(=O)[C@H](CCC(=O)O)NC(=O)[C@@H](NC(C)=O)[C@@H](C)CC)C(N)=O
B10: LP-63 (peptide)
peptide: Ac-QKIEELLKKAEEQQKKNEEELKKLEK(Palmitoyl)-NH2
SMILES: CCCCCCCCCCCCCCCC(=O)NCCCC[C@H](NC(=O)[C@H](CCC(=O)O)NC(=O)[C@H](CC(C)C)NC(=O)[C@H](CCCCN)NC(=O)[C@H](CCCCN)NC(=O)[C@H](CC(C)C)NC(=O)[C@H](CCC(=O)O)NC(=O)[C@H](CCC(=O)O)NC(=O)[C@H](CCC(=O)O)NC(=O)[C@H](CC(N)=O)NC(=O)[C@H](CCCCN)NC(=O)[C@H](CCCCN)NC(=O)[C@H](CCC(N)=O)NC(=O)[C@H](CCC(N)=O)NC(=O)[C@H](CCC(=O)O)NC(=O)[C@H](CCC(=O)O)NC(=O)[C@H](C)NC(=O)[C@H](CCCCN)NC(=O)[C@H](CCCCN)NC(=O)[C@H](CC(C)C)NC(=O)[C@H](CC(C)C)NC(=O)[C@H](CCC(=O)O)NC(=O)[C@H](CCC(=O)O)NC(=O)[C@@H](NC(=O)[C@H](CCCCN)NC(=O)[C@H](CCC(N)=O)NC(C)=O)[C@@H](C)CC)C(N)=O
notes: N-terminally truncated, based on LP-52; also called P63 with C16
B11: LP-91 (peptide)
peptide: Ac-WEQKIEELLKKAEEQQKKNEEELKK(Stearoyl)-NH2
B12: LP-88 (peptide)
peptide: Ac-EQKIEELLKKAEEQQKKNEEELKKLEK(Stearoyl)-NH2
SMILES: CCCCCCCCCCCCCCCCCC(=O)NCCCC[C@H](NC(=O)[C@H](CCC(=O)O)NC(=O)[C@H](CC(C)C)NC(=O)[C@H](CCCCN)NC(=O)[C@H](CCCCN)NC(=O)[C@H](CC(C)C)NC(=O)[C@H](CCC(=O)O)NC(=O)[C@H](CCC(=O)O)NC(=O)[C@H](CCC(=O)O)NC(=O)[C@H](CC(N)=O)NC(=O)[C@H](CCCCN)NC(=O)[C@H](CCCCN)NC(=O)[C@H](CCC(N)=O)NC(=O)[C@H](CCC(N)=O)NC(=O)[C@H](CCC(=O)O)NC(=O)[C@H](CCC(=O)O)NC(=O)[C@H](C)NC(=O)[C@H](CCCCN)NC(=O)[C@H](CCCCN)NC(=O)[C@H](CC(C)C)NC(=O)[C@H](CC(C)C)NC(=O)[C@H](CCC(=O)O)NC(=O)[C@H](CCC(=O)O)NC(=O)[C@@H](NC(=O)[C@H](CCCCN)NC(=O)[C@H](CCC(N)=O)NC(=O)[C@H](CCC(=O)O)NC(C)=O)[C@@H](C)CC)C(N)=O
B13: LP-81 (peptide)
peptide: Ac-WEQKIEELLKKAEEQQKKNEEELKKLEK(Lauroyl)-NH2

* marks the point of attachment. Stearoyl = CCCCCCCCCCCCCCCCCC(=O)*; Palmitoyl = CCCCCCCCCCCCCCCC(=O)*; Lauroyl = CCCCCCCCCCCC(=O)*; Octanoyl = CCCCCCCC(=O)* Some results are limits rather than exact numbers.

One series deals with T1, N39. As to the kind of experiment: circular dichroism temperature scan at 220 nm of the 1:1 mixture with N39, 10 µM each in PBS pH 7.2.
Turning to B1, the “Tm value of the complex” value came out at 70 °C.
On the same count and under the same terms, the value for B2 was 65.1 °C; that for B3 was 63.1 °C; that for B4 was 71.1 °C.
Same read-out and setting: under B5 stands > 70 °C.
The same measure, in the same setting: under B6 stands > 70 °C.
As to B7, the “Tm value of the complex” value came to 79.1 °C.
The same measure, in the same setting: the value for B8 was 72 °C.
Turning to B9, the “Tm value of the complex” value was found to be 55.1 °C.
The same measure, in the same setting: the value for B10 was > 70 °C; that for B11 was 61 °C; that for B12 was 76.5 °C.
On the same count and under the same terms, under B13 stands 74.1 °C.

The target in the next series is T1, N39. As to the kind of experiment: circular dichroism of the 1:1 mixture with N39, 10 µM each in PBS pH 7.2.
On to B7, for which the “helix content of the complex” value was 63.8%.
